Data: publication PMC11063343

Biological target: SARS-CoV-2 S1 spike domain
Experiment: SPR
Conditions: 2.5 µM SARS-CoV-2-S1; parent: est. 450; read off a plot

Question: Which response does the source give for “cellugyrin N-Term peptide Y6A; K10A; F15A” here?
Answer: The response was 45 RU.
